Measurements from patent publication CN113121684A (TIANJIN JIKUN PHARMACEUTICAL TECH CO LTD, dated 2021).

Biological target: T1, 人源FSTL1蛋白 (卵泡抑素样蛋白1, Follistatin-like 1) (human, UniProt Q12841 21-308, limits assumed)
T1 construct: Soluble protein, used as analyte in SPR and as labelled ligand in MST; The construct is not described; also called 抗原; 靶点蛋白
T1 sequence (looked up): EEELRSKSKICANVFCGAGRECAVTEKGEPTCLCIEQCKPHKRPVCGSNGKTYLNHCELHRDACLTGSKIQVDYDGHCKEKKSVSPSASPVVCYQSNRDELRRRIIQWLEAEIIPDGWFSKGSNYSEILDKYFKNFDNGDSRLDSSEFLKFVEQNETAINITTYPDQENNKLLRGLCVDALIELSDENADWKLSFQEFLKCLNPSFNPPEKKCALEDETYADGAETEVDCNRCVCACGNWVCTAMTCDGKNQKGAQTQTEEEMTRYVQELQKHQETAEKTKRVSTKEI
Assay: SPR (Biacore T200), antibody amine-coupled on CM5 chip, FSTL1 protein injected

B1: 人源FSTL1中和性抗体JK07 (全长IgG) (antibody, V domains shown)
VH: QVQLVQSGAEVKKPGSTVKVSCKSSEGTFNNYGISWIRQAPGQGLEWMGGVIPIIGIGNFPQKFQDRVTMTADKFTGTAYMELSSLRSEDTAVYYCARHLGGRNSYDVFDIWGQGTLVTVSS
VL: EIVLTQSPLSLPVTLGQTASISCRSSHSLVQSNGNTYLTWFQQRPGQSPRRLIYKVSSRDSGVPDRFSGSGSGTDFTLKISRVEAEDVGVYYCMQARQTPWTFGQGTKVEIKR
notes: also called JK07抗体
Kd: 6.17 nM
